# Results from the supplement of paper PMC12764529.
# ± gives the half width of the 95% confidence interval.
# Experiment: folding stability dG unfold (combined trypsin and chymotrypsin); higher = more stable
# Procedure, shortened: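 Mini-proteins designed to be under 80 residues and free of cysteine were carried in a PA-tagged cDNA display construct and digested with trypsin and with chymotrypsin. Each protease was applied at 11 threefold-diluted concentrations, alongside a no-protease condition, before sequencing. K50 came from Bayesian fitting of the sequencing counts, and unfolding free energy was obtained by comparing it with a sequence-predicted unfolded-state K50 and a shared folded-state K50, for each protease separately or for both together. Designs were retained only if their AlphaFold2 dimer inter-PAE exceeded 15.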
row,Sequence,folding stability dG unfold [kcal/mol]
1,SAGGSGTESKEYPDSKVTVTPVPLPLGDGAPVLRVTTVPKLPNGEPVTTVTLVDPDSDVVVTEETLSAGGSA [r2_484_JUSTAS],0.598 ± 0.044
2,SAGGSAGGSAGGMKITLTVPSEEEIEALTPPDAKITEIKKIGKDPVKGLPYYEVVLDPSSAGGSAGGSAGGS [r10_256_JUSTAS],0.0912 ± 0.14
3,SAGGSAGGSAGGPRPLRRELRIRRRFRFRVLGLEEGEPRPREFEVEVELVLVETRGPGESAGGSAGGSAGGS [r10_118_TrMRF],3.84 ± 0.21
4,SAGKIKPGQKIKIKITSIEKLKDGTIKIKAEIELEEKGYKITIEAEIKYDKKTKKLTIKVKIKIEPKPSAGG [r19_342_TrROS_Hall],3.88 ± 0.24
5,SMPEVRVEEVTIELEFTLPDGRTVRVEIRLTRVTLPDGRVFTRLEIKVEVPEEDEEARKLLKELLEELLSSA [r9_908_TrROS_Hall],4.69 ± 0.12
6,SAGGSAGGSAGGMTTTTTAPESGDLVTIHPEKGIAVVTSPEGKVTEVPIDPDDYSVEPASAGGSAGGSAGGS [r10_568_JUSTAS],1.19 ± 0.12
7,SAGGEFLEKVIEAAIEAAKAGPDAKLELTIPVPGGPVKVTIEVGEDGKVKVTIYKGDKKILEIELPLSAGGS [r16_611_TrMRF],> 6
8,SAGGKITIEIEEEDGYLVIRIREEKEVYDEETGELKKEEKEITIVLPLEEAKKLAEELNLEIEIVEPSAGGS [r8_337_TrROS_Hall],2.42 ± 0.23
9,SAGGLTVTLTDSSGNPVTVETELLPDNTLVLTITRTTPSGKTYTRTGIVSIDNTTINLVSFSEWTEDPSAGG [r13_451_JUSTAS],3.02 ± 0.16
10,SAGGPFDDFEPLGTIPFKVNGMEIEIQIWRMKNPGHYMVDIRNPGFGIPVMYWVPPGDIEEILDLIRSAGGS [r8_469_TrROS],2.7 ± 0.14
11,SAGGSAGGSMKIYEVPPEVAENMSLEEIIESLVLPGYPAKAEAFEDEGPGYVLVDLFLPPELGSAGGSAGGS [r12_716_TrMRF],0.842 ± 0.13
12,SAGGSAGGKKKYLVKITIKYVDKKTGKLVKEETITVEVSEEELEELLKKLPPGAEITKIEIYKLSAGGSAGG [r6_776_TrROS_Hall],3.4 ± 0.071
13,SMKIKSIKIEPIRIGDEEYFLIPIEVDGEEIPPEEVKRLVEELFEKLGLPLDPVLLEDPESDIVLVLARGSA [r9_717_TrMRF],1.48 ± 0.16
14,SAGGSAGGSSPSTSSERRIELPGGEEAEVFFYPSSGKILVRFPDREVEYYVEDDGKIVKKDPLSAGGSAGGS [r12_47_JUSTAS],0.315 ± 0.13
15,KIPITIEEDPEDKMYELRVPDGMPIQIQRSKDGYRVSIWNPDNGKPREIPITKKDLKDLLSNPGFWIEIYKS [r1_18_TrROS],1.77 ± 0.11
16,SAGGSAGGSAGGMKKPILLPGETEEDVLERIKKLPKDYKVTIEKLDDDKLLVTITSPKLGSAGGSAGGSAGG [r7_662_JUSTAS],0.58 ± 0.33

row,Sequence,folding stability dG unfold [kcal/mol]
1,SAGGSAGGSMSTSLSLSSAPGVSVVTTAHPDSTVVTEQPPDGSRVVRVLDPAGELVAEEAVAPSAGGSAGGS [r12_471_JUSTAS],-0.33 ± 0.15
2,SAGGSAGGSAGGLEELKKGFKKPVFVAKIEKEVRLLPNGDLIVRYKIEGPDLELELVFSSAGGSAGGSAGGS [r10_160_TrMRF],3.28 ± 0.12
3,MTLLIPLPPAFPDLTPEQVLDLLRELFLSPDEEATAEENPETGSVTVTVRRGDEEYVFTFYPDGYLVLEPGS [r1_131_TrMRF],2.83 ± 0.04
4,SAGGSAGGSAGMVYITKGKDGIWYEAEVDPTKPGAKVKVRHPLTGKEEEITPAEVVAVPPSAGGSAGGSAGG [r11_822_TrMRF],0.155 ± 0.42
5,KTLVIHAKTPEEILAAIKEAIKEGKTVVIEMSPELIEALKEAGFEIEKIEEVEEIDGKKIYRVVIEVKPKES [r1_173_TrROS_Hall],2.87 ± 0.2
6,SAGGSAGGSKLTIMVKMDSAEDAEEEARSLLKELGIKPGMKEVKVSMFPRGNEYYAHVEIKFKSAGGSAGGS [r12_7_TrROS],0.776 ± 0.12
7,SAGGSAGGMKVTTEGNAAGTNTVTVSYPDGSSVTRTLAPDDVVEVPVGGEVVLTVTVTANPDLPSAGGSAGG [r6_583_JUSTAS],-0.0541 ± 0.12
8,SAGGSASTVTRTRTIPGSGLTVEITETPLPDGTYSYTVTFYAPDSALKTTPKTAAPDELPEEELLSSAGGSA [r15_147_JUSTAS],1.1 ± 0.06
9,SDKLAKLLEDELEKAGYEVVSVEVRYDPEKGLLYVNALVRRKDDPTWYRVRAVYNPETDELLEVKIEPLPSA [r9_814_TrMRF],> 6
10,SMKFTITLSNPVDGTTETIPLDVPLEELVKIIKEAHEKGGTVTITGLPEELAKEIAEKSGLDVSINPAPGSA [r9_1207_JUSTAS],2.85 ± 0.14
11,SAGGSAGGSASMAPPEVLSLPVEILEKSPDGSVTVLVPETGEVLTFPSPKVNVTPDGTLNLSSAGGSAGGSA [r18_89_JUSTAS],0.0808 ± 0.1
12,SAGGSAGGSMELVIPKEEVEKMSEEVVKKIKELAKKANISISETEDSLVIPIKKVSEKVIKELSAGGSAGGS [r12_945_JUSTAS],0.232 ± 0.1
13,SAGGSAGGSMEPRPVVITFRDPEGNFIGTVELPAEFESEEEALAAAEAVRAANPGYTVEIEGLSAGGSAGGS [r20_201_JUSTAS],1.87 ± 0.07
14,SAGGSAGGSAGGSMTVTVTLKDGSTRTFAVPADAPLTLEQLEAAGYPAADIAEVTVTAESAGGSAGGSAGGS [r10_565_JUSTAS],2.96 ± 0.038
15,SAGGSAKKEVYKINIKVYNKNGKKVKEIKIELPEELKGKTIEEIAKELAKKLNIEKIEVKIEPVKPSAGGSA [r15_333_TrROS_Hall],2.78 ± 0.21
16,SAGGSAGGSAGGWYIYFPNHYYPIKKITINPGGNIEIEFPNGNERTFDNVSIMPPGQEISAGGSAGGSAGGS [r10_1151_TrROS],0.219 ± 0.097
